Results on five molecules are retold here after patent US20170051068A1 (Janssen / Centocor, published 2017).

Experiment [1] has as its target T1, Recombinant human BCMA-Fc fusion protein (R&D Systems catalog #193-BC-050) (human, UniProt Q02223 1-54).
T1 construct: also called hBCMA-Fc; Fc-BCMA Hu; not shown: Fc part of the bought fusion protein
T1 sequence: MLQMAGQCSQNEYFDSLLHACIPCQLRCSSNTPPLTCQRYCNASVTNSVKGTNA
Description: SPR, Fc-BCMA, two-state model, step 2.

Experiment [2] addresses T2, Fc-fusion cyno BCMA (in-house; Cat# BCMW6.001) (cyno, UniProt Q02223 1-54 (human entry)).
T2 construct: also called Fc-BCMA Cy; cyno Fc-BCMA; not shown: Fc part
Description: SPR, Fc-BCMA, two-state model, step 2.

The target in experiment [3] is T1, Recombinant human BCMA-Fc fusion …. Description: SPR, Fc-BCMA, two-state model, first complex. For orientation: SPR reads the build-up and loss of mass on a sensor chip optically.
Experiment [4] addresses T2, Fc-fusion cyno BCMA (in-house; Cat# …). Kind of experiment: SPR, Fc-BCMA, two-state model, first complex.
In experiment [5] the target is T1, Recombinant human BCMA-Fc fusion …. Description: SPR, Fc-BCMA, two-state model, step 1 (kon1); first step (kon1).
The target in experiment [6] is T2, Fc-fusion cyno BCMA (in-house; Cat# …). The experiment is described as above.
Experiment [7] addresses T1, Recombinant human BCMA-Fc fusion …. Description: SPR, Fc-BCMA, two-state model, step 1 (koff1); first step (koff1).
For experiment [8], the target named is T2, Fc-fusion cyno BCMA (in-house; Cat# …). The description is as above.
In experiment [9] the target is T1, Recombinant human BCMA-Fc fusion …. Description: SPR, Fc-BCMA, two-state model, Final KD; Final complex KD, two-state model.
In experiment [10] the target is T2, Fc-fusion cyno BCMA (in-house; Cat# …). The description is as above.
The target in experiment [11] is T1, Recombinant human BCMA-Fc fusion …. Description: SPR, human Fc-BCMA.
In experiment [12] the target is T3, monomeric human BCMA (human, UniProt Q02223 1-54, limits assumed).
T3 construct: also called monomeric BCMA antigen
T3 sequence: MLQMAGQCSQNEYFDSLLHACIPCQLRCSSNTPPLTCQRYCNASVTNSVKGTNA
Kind of experiment: SPR.

Experiment [13] has as its target T3, monomeric human BCMA. Kind of experiment: SPR, monomeric human BCMA.

B1: BC3B8 (BCMA×CD3 bispecific antibody, BCMB123 × CD3B219) (bispecific antibody, human IgG4 S228P, lambda, F234A L235A)
heavy 1: EVQLVESGGGLVQPGGSLRLSCAASGFTFNTYAMNWVRQAPGKGLEWVARIRSKYNNYATYYAASVKGRFTISRDDSKNSLYLQMNSLKTEDTAVYYCARHGNFGNSYVSWFAYWGQGTLVTVSSASTKGPSVFPLAPCSRSTSESTAALGCLVKDYFPEPVTVSWNSGALTSGVHTFPAVLQSSGLYSLSSVVTVPSSSLGTKTYTCNVDHKPSNTKVDKRVESKYGPPCPPCPAPEAAGGPSVFLFPPKPKDTLMISRTPEVTCVVVDVSQEDPEVQFNWYVDGVEVHNAKTKPREEQFNSTYRVVSVLTVLHQDWLNGKEYKCKVSNKGLPSSIEKTISKAKGQPREPQVYTLPPSQEEMTKNQVSLTCLVKGFYPSDIAVEWESNGQPENNYKTTPPVLDSDGSFLLYSKLTVDKSRWQEGNVFSCSVMHEALHNHYTQKSLSLSLGK
light 1: QTVVTQEPSLTVSPGGTVTLTCRSSTGAVTTSNYANWVQQKPGQAPRGLIGGTNKRAPGTPARFSGSLLGGKAALTLSGVQPEDEAEYYCALWYSNLWVFGGGTKLTVLGQPKAAPSVTLFPPSSEELQANKATLVCLISDFYPGAVTVAWKADSSPVKAGVETTTPSKQSNNKYAASSYLSLTPEQWKSHRSYSCQVTHEGSTVEKTVAPTECS
heavy 2: not shown
light 2: SYVLTQPPSVSVAPGQTARITCGGNNIGSKSVHWYQQPPGQAPVVVVYDDSDRPSGIPERFSGSNSGNTATLTISRVEAGDEAVYYCQVWDSSSDHVVFGGGTKLTVLGQPKAAPSVTLFPPSSEELQANKATLVCLISDFYPGAVTVAWKADSSPVKAGVETTTPSKQSNNKYAASSYLSLTPEQWKSHRSYSCQVTHEGSTVEKTVAPTECS
notes: IgG4 made by Fab arm exchange; also called B123 × B219
Consider B1, for which the values for the koff2 in experiment [1] and in experiment [2] were 0.000594 s⁻¹ and 0.000326 s⁻¹, respectively. Moreover, the figures for the kon2 in experiment [1] and in experiment [2] were 0.00313 s⁻¹ and 0.00194 s⁻¹, respectively. Besides, the KD1 in [3] was found to be 0.91 nM; in [4] it was 6.77 nM. Also, the kon in experiment [5] was determined as 1.35e+06 M⁻¹ s⁻¹; in [6] it was 1.09e+06 M⁻¹ s⁻¹. Further, the figures for the koff in experiment [7] and in [8] were 0.00123 s⁻¹ and 0.00734 s⁻¹, respectively. The results for the Kd in [9] and in experiment [10] were 0.14 nM and 0.97 nM, respectively.

B2: BC3B10 (BCMA×CD3 bispecific antibody, BCMB129 × CD3B219) (bispecific antibody, human IgG4 S228P, lambda, F234A L235A)
heavy 1: EVQLVESGGGLVQPGGSLRLSCAASGFTFNTYAMNWVRQAPGKGLEWVARIRSKYNNYATYYAASVKGRFTISRDDSKNSLYLQMNSLKTEDTAVYYCARHGNFGNSYVSWFAYWGQGTLVTVSSASTKGPSVFPLAPCSRSTSESTAALGCLVKDYFPEPVTVSWNSGALTSGVHTFPAVLQSSGLYSLSSVVTVPSSSLGTKTYTCNVDHKPSNTKVDKRVESKYGPPCPPCPAPEAAGGPSVFLFPPKPKDTLMISRTPEVTCVVVDVSQEDPEVQFNWYVDGVEVHNAKTKPREEQFNSTYRVVSVLTVLHQDWLNGKEYKCKVSNKGLPSSIEKTISKAKGQPREPQVYTLPPSQEEMTKNQVSLTCLVKGFYPSDIAVEWESNGQPENNYKTTPPVLDSDGSFLLYSKLTVDKSRWQEGNVFSCSVMHEALHNHYTQKSLSLSLGK
light 1: QTVVTQEPSLTVSPGGTVTLTCRSSTGAVTTSNYANWVQQKPGQAPRGLIGGTNKRAPGTPARFSGSLLGGKAALTLSGVQPEDEAEYYCALWYSNLWVFGGGTKLTVLGQPKAAPSVTLFPPSSEELQANKATLVCLISDFYPGAVTVAWKADSSPVKAGVETTTPSKQSNNKYAASSYLSLTPEQWKSHRSYSCQVTHEGSTVEKTVAPTECS
heavy 2: not shown
light 2: SYVLTQPPSVSVAPGQTARITCGGNNIGSKSVHWYQQPPGQAPVVVVYDDSDRPSGIPERFSGSNSGNTATLTISRVEAGDEAVYYCQVWDSSSDHVVFGGGTKLTVLGQPKAAPSVTLFPPSSEELQANKATLVCLISDFYPGAVTVAWKADSSPVKAGVETTTPSKQSNNKYAASSYLSLTPEQWKSHRSYSCQVTHEGSTVEKTVAPTECS
notes: IgG4 made by Fab arm exchange; also called B129 × B219
Consider B2, for which the koff2 in experiment [1] was 0.000531 s⁻¹; in experiment [2] it was 0.000359 s⁻¹. Moreover, the kon2 came out at 0.00453 s⁻¹ in experiment [1] and 0.00165 s⁻¹ in [2]. For the same molecule, the figures for the KD1 in [3] and in experiment [4] were 1.5 nM and 6.84 nM, respectively. For the same molecule, the kon was 1.02e+06 M⁻¹ s⁻¹ in experiment [5] and 930000 M⁻¹ s⁻¹ in experiment [6]. Further, the values for the koff in experiment [7] and in [8] were 0.00155 s⁻¹ and 0.00636 s⁻¹, respectively. Besides, the Kd in [9] turned out to be 0.16 nM; in experiment [10], 1.22 nM.

B3: BC3B11 (BCMA×CD3 bispecific antibody, BCMB176 × CD3B219) (bispecific antibody, human IgG4 S228P, lambda, F234A L235A)
heavy 1: EVQLVESGGGLVQPGGSLRLSCAASGFTFNTYAMNWVRQAPGKGLEWVARIRSKYNNYATYYAASVKGRFTISRDDSKNSLYLQMNSLKTEDTAVYYCARHGNFGNSYVSWFAYWGQGTLVTVSSASTKGPSVFPLAPCSRSTSESTAALGCLVKDYFPEPVTVSWNSGALTSGVHTFPAVLQSSGLYSLSSVVTVPSSSLGTKTYTCNVDHKPSNTKVDKRVESKYGPPCPPCPAPEAAGGPSVFLFPPKPKDTLMISRTPEVTCVVVDVSQEDPEVQFNWYVDGVEVHNAKTKPREEQFNSTYRVVSVLTVLHQDWLNGKEYKCKVSNKGLPSSIEKTISKAKGQPREPQVYTLPPSQEEMTKNQVSLTCLVKGFYPSDIAVEWESNGQPENNYKTTPPVLDSDGSFLLYSKLTVDKSRWQEGNVFSCSVMHEALHNHYTQKSLSLSLGK
light 1: QTVVTQEPSLTVSPGGTVTLTCRSSTGAVTTSNYANWVQQKPGQAPRGLIGGTNKRAPGTPARFSGSLLGGKAALTLSGVQPEDEAEYYCALWYSNLWVFGGGTKLTVLGQPKAAPSVTLFPPSSEELQANKATLVCLISDFYPGAVTVAWKADSSPVKAGVETTTPSKQSNNKYAASSYLSLTPEQWKSHRSYSCQVTHEGSTVEKTVAPTECS
heavy 2: not shown
light 2: SYVLTQPPSVSVAPGQTARITCGGNNIGSKSVHWYQQPPGQAPVVVVYDDSDRPSGIPERFSGSNSGNTATLTISRVEAGDEAVYYCQVWDSSSDHVVFGGGTKLTVLGQPKAAPSVTLFPPSSEELQANKATLVCLISDFYPGAVTVAWKADSSPVKAGVETTTPSKQSNNKYAASSYLSLTPEQWKSHRSYSCQVTHEGSTVEKTVAPTECS
notes: IgG4 made by Fab arm exchange; also called B176 × B219
On to B3, for which the “fold weaker affinity than BCMB72” value in experiment [11] was in the range of 2 to 3 fold. Also, the results for the koff2 in [1] and in experiment [2] were 0.000689 s⁻¹ and 0.000395 s⁻¹, respectively. Besides, the results for the kon2 in experiment [1] and in [2] were 0.00252 s⁻¹ and 0.00147 s⁻¹, respectively. Further, the KD1 in experiment [3] worked out at 0.58 nM; in experiment [4], 3.56 nM. For the same molecule, the kon was 2.26e+06 M⁻¹ s⁻¹ in experiment [5] and 1.93e+06 M⁻¹ s⁻¹ in [6]. For the same molecule, the results for the koff in experiment [7] and in experiment [8] were 0.00132 s⁻¹ and 0.00683 s⁻¹, respectively. Besides, the Kd in experiment [9] was 0.12 nM; in [10], 0.75 nM.

B4: BCMB123 (antibody, human IgG4 S228P, lambda, F234A L235A, V domains shown)
VH: QLQLQESGPGLVKPSETLSLTCTVSGGSISSSSYFWGWIRQPPGKGLEWIGSIYYSGITYYNPSLKSRVTISVDTSKNQFSLKLSSVTAADTAVYYCARHDGAVAGLFDYWGQGTLVTVSS
VL: SYVLTQPPSVSVAPGQTARITCGGNNIGSKSVHWYQQPPGQAPVVVVYDDSDRPSGIPERFSGSNSGNTATLTISRVEAGDEAVYYCQVWDSSSDHVVFGGGTKLTVLG
notes: IgG4 S228P, L234A, L235A; also called BCBM123
Consider B4, for which, in the experiment with monomeric human BCMA [12], the “fold weaker affinity than BCMB69” value is 3 to 15 fold. In the experiment with monomeric human BCMA [13], this molecule gave a dissociation constant (Kd) of 5.12 nM, a koff of 0.011 s⁻¹ and a kon of 2.14e+06 M⁻¹ s⁻¹.

B5: BCMB177 (antibody, human IgG4 S228P, lambda, F234A L235A, V domains shown)
VH: QLQLQESGPGLVKPSETLSLTCTVSGGSISSSSYFWGWIRQPPGKGLEWIGSIYYSGRTYYNPSLKSRVTISVDTSKNQFSLKLSSVTAADTAVYYCARHDGATAGLFDYWGQGTLVTVSS
VL: SYVLTQPPSVSVAPGQTARITCGGNNIGSKSVHWYQQPPGQAPVVVVYDDSDRPSGIPERFSGSNSGNTATLTISRVEAGDEAVYYCQVWDSSSDHVVFGGGTKLTVLG
notes: IgG4 S228P, L234A, L235A; also called BCBM177
Take B5: the “fold weaker affinity than BCMB69” value with monomeric human BCMA [12] is 3 to 15 fold. In the experiment with monomeric human BCMA [13], this molecule showed a Kd of 20.2 nM, a koff of 0.0566 s⁻¹ and a kon of 2.8e+06 M⁻¹ s⁻¹.

What is called kon is the second-order rate constant of association. For orientation: koff means a measure of how fast the partners let go of each other. By Kd is commonly meant the equilibrium constant for the complex coming apart.
